Reference: patent US20240117011A1 (US Dept. of Health and Human Services, published 2024)

What was measured:
SARS-CoV-2 NTD = SARS-CoV-2 NTD (SARS-CoV-2, UniProt P0DTC2 14-305); test: ELISA
[1] = biological target: full-length SARS-CoV-2 spike, WA-1 / Wuhan-1 (S wt) (SARS-CoV-2, UniProt P0DTC2 14-1273); test: cell-based or functional assay
SARS-CoV-2 RBD = SARS-CoV-2 RBD (SARS-CoV-2, UniProt P0DTC2 319-541); test: ELISA
SARS-CoV-2 S1 = biological target: T1, SARS-CoV-2 S1 (SARS-CoV-2, UniProt P0DTC2 14-681); test: ELISA
T1 construct: range 1-681

| Binder | binding result (SARS-CoV-2 NTD) | pseudotyped virus neutralization IC50 [1] [µg/mL] | pseudotyped virus neutralization IC80 [1] [µg/mL] | binding result (SARS-CoV-2 RBD) | binding result (SARS-CoV-2 S1) |
| --- | --- | --- | --- | --- | --- |
| A23-105.1 (antibody, V domains shown) VH: QVQLVESGGGVVQPGRSLRLSCAASGFTFSNYAIHWVRQAPGKGLEWVAVISYDGSNKYYADSVKGRFTISRDNSKNTLYLEMNSLRAEDMAVYYCARVGPYQYDSSAAFDIWGQGTMVTVSS VL: not shown | no binding | 0.0889 | 0.228 |  |  |
| A20-29.1 (antibody, V domains shown) VH: EVQLVESGGGLVQPGRSLRLSCAASGFTFDDYAMHWVRQTPGKGLEWVSGISWNSGDIDYADSVKGRFTISRDNAKNSLYLQMNSLRTEDTALYYCTKGWFGEFFGAGSICDYWGQGTLVTVSS VL: EIVMTQSPATLSVSPGERATLSCRASQSVSNNLAWYQQKPGQAPRLLIYGASTRATGIPARFSGSGSGTEFTLTISSLQSEDFAVYYCQQYNNWPLFGQGTKVEIK |  | 0.348 | 1.36 |  |  |
| A23-97.1 (antibody, V domains shown) VH: QVQLVESGGGVVQPGGSLRLSCAASGFTFSSFGMHWVRQAPGKGLEWVAFIRYDGSNKYYADSVKGRFTISRDNSKNTLYLQMNSLRAEDTAVYYCAKTELYYYDSSGPLGWGQGTLVTVSS VL: not shown | no binding | 0.484 | 5.28 |  |  |
| A20-36.1 (antibody, V domains shown) VH: QVQLVESGGGVVQPGRSLRLSCAASGFIFSSYGVHWVRQAPGKGLEWVAVIWHDESNKDYADSVKGRFTISRDNSKNTVYLQMNSLRAEDTAMYYCARDGYDFLTGAYELDYWGQGTLVTVSS VL: SYELTQPPSVSVSPGQTARITCSGDALPKQYAYWYQQKPGQAPVVVIYKDSERPSGIPERFSGSSSGTTVTLTISGVQAEDEADYYCQSADSSGTWVFGGGTKLTVL | no binding | 1.39 | 3.76 | no binding |  |
| A20-9.1 (antibody, V domains shown) VH: QVQLVESGGGVVQPGRSLRLSCAASGFTFSSYGMHWVRQAPGKGLEWVAFISYDGSNKYYADSVKGRFTISRDNSKNTLYLQMNSLRAEDTAVYYCAKDYWSVAAGTSWFDPWGQGTLVSVSS VL: SYELTQPPSVSVSPGQTARITCSGDALPKQYAYWYQQKPGQAPVVVIYKDSERPSGIPERFSGSSSGTTVTLTISGVQAEDEADYYCQSADSSGTWVFGGGTKLTVL | no binding | 1.21 |  | no binding |  |
| A19-46.1 (antibody, V domains shown) VH: QVQLVESGGGVVQPGRSLRLSCAASGFTLSSYGMHWVRQAPGKGLEWVAVISYDGSNKYYVDSVKGRFTISRDNSKNTLYLQMNSLRAEDTAVYYCARGWAYWELLPDYYYGMDVWGQGTTVTVSS VL: QTVVTQEPSFSVSPGGTVTLTCGLSSGSVSTAYFPSWYQQTPGQAPRTLIYGTNTRSSGVPDRFSGSILGNKAALTITGAQADDESDYYCVLYMGRGIVVFGGGTKLTVL |  | 0.0398 | 0.129 |  |  |
| A19-61.1 (antibody, V domains shown) VH: QVQLVESGGGVVQPGRSLRLSCAASGFTFSSYAFHWVRQAPGKGLEWVAVISYDGSNQYYADSVKGRFTISRDNSKNTLYLQMNSLRADDTAVYYCARDLAIAVAGTWHYYNGMDVWGQGTTVTVSS VL: DIQMTQSPSSVSASVGDRVIITCRASQGISSWLAWYQQKPGKAPKVLIYDASSLQSGVPSRFSGSGYGTDFTLTISSLQPEDSATYYCQQAKSFPITFGQGTRLEIK | no binding | 0.0709 | 0.163 |  |  |
| A19-82.1 (antibody, V domains shown) VH: QVQLVESGGGVVQPGRSLRLSCVVSGLIFSTYDMHWVRQAPGKGLEWVAVISYDGSYKHYADSVKGRFTISRDSSKNTLYLQMNSLRPEDTAVYYCAKGEGVVAGTGKFDYWGQGTLVTVSS VL: SYVLTQPPSVSVAPGQTARITCGGNNIGSKSVHWYQQKPGQAPVLVVYDDSDRPSGIPERFSGSNSGNTATLTISRVEAGDEADYYCQVWDGSGDPWVFGGGTKLTVL | no binding | 0.72 | 5.93 |  |  |
| A19-1.1 (antibody, V domains shown) VH: QVQLVESGGGVVQPGRSLRLSCAASGFTFTNYAMHWVRQAPGKGLEWVAVISNDGSDKYYADSVKGRFTISRDNSKSTVYLQMSSLRPEDTAVYFCARDPPQVHWSLDYWGQGTLVTVSS VL: QSALTQPPSASGSPGQSVTISCTGTSSDVGDYNYVSWYQHHPGKAPKLIIYDVSKRPSGVPDRFSGSKSGDTASLTVSGLQAEDEADYYCSSYAGNNNAVFGTGTKVTVL | no binding | 0.126 | 0.53 |  |  |
| A23-80.1 (antibody, V domains shown) VH: QVQLVQSGAEVKKPGASVKVSCKASGYTFTSNGVTWVRQAPGQGLEWMGWISTYNGDTNYAQKLQGRVSMTTDTSTRTVYMELRSLRSDDTAVYYCARVGDAYCSGGSCYHFDYWGQGTLVTVSS VL: EIVMTQSPATLSVSPGERATLSCRASQSVSTNLAWYQQKPGQAPRLLIYGASTRATGIPARFSGSGSGTEFTLTISSLQSEDFALYYCQQYDNWPPEFTFGPGTKVDIK | no binding | 0.321 |  |  |  |
| A19-30.1 (antibody, V domains shown) VH: QVQLVESGGGVVQPGRSLRLSCAASGFTFSNYGMHWVRQAPGKGLEWLAVISYDGSNKYYADSVKGRFTISRDNSKNTLFLQMNSLRAEDTAVYYCAKESQFGELFEALDYWGQGTLVTVSS VL: SYELTQPPSVSVSPGQTARITCSGDALPRKYAFWYQQKSGQAPVLVISEDSKRPSGIPERFSGSSSGTMATLTISGAQVEDEADYYCYSTDSSGNHRVFGGGTKLTVL | no binding |  |  | binds | binds |
| A23-113.1 (antibody, V domains shown) VH: QVHLEESGGAVVQPGRSLRLSCAASGFTFSSYGMHWVRQAPGKGLEWVAVISHDGSYKYYADSVKGRFTISRDNSKDTLYLQTNSLRAEDTAMYYCAKSYGYWMAYFDYWGQGTLVTVSS VL: DIQMTQSPSSLSASVGDRVTITCRASQDISNYLAWYQQKPGKVPKLLIYAASTLQSGVPSRFSGSGSGTDFTLTISSLQPEDVATYYCQKYNSPWHTFGGGTKVEIK | no binding | 0.393 | 7.81 |  |  |
